What is called EC50 is the concentration at which the effect is half-maximal. Lower therefore signals higher potency in that assay. The koff is a measure of how fast the partners let go of each other. In general, kon refers to a measure of how fast the partners come together. The term Kd denotes a measure of binding affinity in units of concentration.

Changes are numbered by the printed parent chain. In names and notes the source's numbering stands.

The target of assay [1] is T1, human MICB expressed on transduced cells (human, UniProt Q29980 23-382).
T1 chain: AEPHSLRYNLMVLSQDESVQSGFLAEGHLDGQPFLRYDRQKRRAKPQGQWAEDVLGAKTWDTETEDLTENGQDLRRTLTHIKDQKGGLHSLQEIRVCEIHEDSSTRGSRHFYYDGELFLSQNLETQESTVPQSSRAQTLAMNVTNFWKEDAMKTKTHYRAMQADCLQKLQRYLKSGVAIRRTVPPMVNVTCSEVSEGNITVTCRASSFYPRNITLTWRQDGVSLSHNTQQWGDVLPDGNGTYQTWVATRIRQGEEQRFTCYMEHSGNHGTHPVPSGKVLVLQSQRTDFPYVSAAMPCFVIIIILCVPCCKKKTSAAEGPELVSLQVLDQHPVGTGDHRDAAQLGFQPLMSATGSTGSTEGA
As to the kind of experiment: cell-based or functional assay.

Assay [2] deals with T2, human MICA/B endogenously expressed on 786-O cells (MICA allele *008) (human, UniProt Q29983 24-331).
T2 chain: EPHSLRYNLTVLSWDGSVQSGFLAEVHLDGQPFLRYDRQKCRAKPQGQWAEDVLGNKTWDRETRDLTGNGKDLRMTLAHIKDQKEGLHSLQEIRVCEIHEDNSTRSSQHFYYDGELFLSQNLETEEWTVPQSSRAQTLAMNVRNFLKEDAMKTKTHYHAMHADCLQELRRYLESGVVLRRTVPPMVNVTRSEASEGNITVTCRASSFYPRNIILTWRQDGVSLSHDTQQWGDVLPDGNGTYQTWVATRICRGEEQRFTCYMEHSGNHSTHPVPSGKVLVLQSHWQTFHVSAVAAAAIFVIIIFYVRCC
As to the kind of experiment: cell-based or functional assay.

Assay [3] addresses T3, human MICA/B endogenously expressed on HeLa cells (MICA allele *008) (human, UniProt Q29983 24-331).
T3 chain: T2 chain
As to the kind of experiment: cell-based or functional assay.

Assay [4] concerns the target T4, human MICA/B endogenously expressed on RPMI-8226 cells (human, UniProt Q29983 24-383).
T4 construct: whole, on cells
T4 sequence (looked up): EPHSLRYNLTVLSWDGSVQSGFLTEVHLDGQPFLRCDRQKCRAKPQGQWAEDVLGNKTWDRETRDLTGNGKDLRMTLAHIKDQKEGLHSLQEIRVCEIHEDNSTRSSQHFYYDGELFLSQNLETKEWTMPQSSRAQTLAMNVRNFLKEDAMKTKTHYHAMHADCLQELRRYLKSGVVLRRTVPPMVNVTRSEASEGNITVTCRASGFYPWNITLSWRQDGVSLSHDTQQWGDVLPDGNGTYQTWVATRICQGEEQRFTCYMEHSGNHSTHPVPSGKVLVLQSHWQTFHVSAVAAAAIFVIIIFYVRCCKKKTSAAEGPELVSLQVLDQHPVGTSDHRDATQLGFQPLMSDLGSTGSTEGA
As to the kind of experiment: flow cytometry, tumor cells with endogenous MICA/B. On the procedure:
Serial dilutions of MICA.36-IgG1-NF-G236A mAb were incubated with CHO cells transduced with human MICA/B common alleles or human tumor cell lines that endogenously express MICA/B. Cells were then washed twice, and cell bound antibodies were detected using a secondary anti-human antibody conjugated with a fluorophore. Flow cytometric analyses were performed using a FACSCantoII or FACS Fortessa X-20 flow cytometer. The geometric mean fluorescence intensity of MICA.36-IgG1-NF-G236A mAb bound to cells was determined using FlowJo analysis software. Dose-response curves were generated and EC50s calculated using Prism software.
MICA.36-IgG1-NF-G236A bound to endogenously expressed MICA/B on a variety of human tumor cell lines (FIG. 8B).
(Flow cytometry measures light scatter and fluorescence of single cells or particles in a stream.)

In assay [5] the target is T2, human MICA/B endogenously expressed on …. As to the kind of experiment: flow cytometry, tumor cells with endogenous MICA/B (column Binding EC50).
The target in assay [6] is T3, human MICA/B endogenously expressed on …. The description is as above.
For assay [7], the target named is T5, recombinant soluble human MICA*004 antigen (human, UniProt Q29983 24-307).
T5 construct: also called huIMICA-his allele *004
T5 chain: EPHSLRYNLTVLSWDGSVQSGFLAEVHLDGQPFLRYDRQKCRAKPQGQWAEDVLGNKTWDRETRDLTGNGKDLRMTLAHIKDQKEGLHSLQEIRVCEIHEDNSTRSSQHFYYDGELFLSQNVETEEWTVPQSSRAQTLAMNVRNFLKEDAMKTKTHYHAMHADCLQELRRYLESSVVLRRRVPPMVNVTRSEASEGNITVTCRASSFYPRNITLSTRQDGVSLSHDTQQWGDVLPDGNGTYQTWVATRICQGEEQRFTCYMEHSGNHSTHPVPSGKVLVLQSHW
As to the kind of experiment: SPR (Biacore T200, 37 C), antibody captured on anti-human Fc, antigen 100 and 10 nM. On the procedure: (§1) Anti-MICA/B antibodies were captured to α-human Fc surfaces. MICA allele antigens were injected at high and low nanomolar concentrations (500 nM and 50 nM, except indicated otherwise). The results for antibodies MICA.36 and MICA.38 (MICA.2 with a Ser inserted between residues 95 and 96 in the light chain) are shown in Table 2 below.
In general terms: Surface plasmon resonance follows binding to a sensor surface in real time, without labels.

Assay [8] concerns the target T6, recombinant soluble human MICA*008 antigen (human, UniProt Q29983 24-307).
T6 construct: also called huIMICA-his allele *008; recombinant soluble MICA (allele 8)
T6 chain: T5 chain with V122L, S175G, R181T, T213I, S215T, T216W, Q251R
The assay is described as above. The method, then:
as §1

Assay [9] addresses T7, recombinant soluble human MICA*009 antigen (human, UniProt Q29983 24-307).
T7 construct: also called huIMICA-his allele *009
T7 chain: T5 chain with V122L, R181T, S215T, T216W
The description is as above. The method, then: as §1

Assay [10] addresses T8, recombinant soluble human MICA*002 antigen (human, UniProt Q29983 24-307).
T8 construct: also called huIMICA-his allele *002
T8 chain: T5 chain with W14G, Y36C, V122L, V129M, E173K, S175G, R181T, S206G, R210W, T216W
As to the kind of experiment: SPR (Biacore T200, 37 C), antibody captured on anti-human Fc, antigen 500 and 50 nM. The method, then: as §1

Assay [11] addresses T5, recombinant soluble human MICA*004 …. The assay is described as above. On the procedure: as §1
Assay [12] has as its target T6, recombinant soluble human MICA*008 …. Described as above. On the procedure:
as §1

Assay [13] deals with T7, recombinant soluble human MICA*009 …. The assay is described as above. On the procedure:
as §1

The target of assay [14] is T5, recombinant soluble human MICA*004 …. As to the kind of experiment: SPR (Biacore T200, 37 C), antibody captured on anti-human Fc, range over both antigen concentration sets. The method, then: as §1
Assay [15] has as its target T6, recombinant soluble human MICA*008 …. Described as above. On the procedure: as §1
The target of assay [16] is T7, recombinant soluble human MICA*009 …. Described as above. On the procedure: as §1

B1: MICA.36-IgG1-NF-G236A (antibody)
heavy: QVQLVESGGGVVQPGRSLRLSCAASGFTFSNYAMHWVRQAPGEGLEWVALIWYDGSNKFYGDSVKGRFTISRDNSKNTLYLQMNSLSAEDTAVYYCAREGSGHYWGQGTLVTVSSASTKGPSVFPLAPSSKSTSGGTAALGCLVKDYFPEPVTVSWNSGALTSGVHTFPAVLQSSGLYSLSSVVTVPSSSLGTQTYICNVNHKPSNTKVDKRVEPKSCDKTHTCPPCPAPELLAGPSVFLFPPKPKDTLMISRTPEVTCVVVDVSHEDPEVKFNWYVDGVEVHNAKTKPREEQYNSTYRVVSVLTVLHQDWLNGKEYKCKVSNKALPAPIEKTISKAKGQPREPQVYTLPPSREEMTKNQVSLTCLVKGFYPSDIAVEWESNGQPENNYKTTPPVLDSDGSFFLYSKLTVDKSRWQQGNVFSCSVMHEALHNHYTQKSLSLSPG
light: AIQLTQSPSSLSASVGDRVTITCRASQGISSALAWYQQKPGKVPKSLIYDASSLESGVPSRFSGSGSGTDFTLTISSLQPEDFATYYCQQFNSYPITFGQGTRLEIKRTVAAPSVFIFPPSDEQLKSGTASVVCLLNNFYPREAKVQWKVDNALQSGNSQESVTEQDSKDSTYSLSSTLTLSKADYEKHKVYACEVTHQGLSSPVTKSFNRGEC
modifications: non-fucosylated (expressed in FUT8-knock-out CHO cells)
notes: Human IgG1 with G236A (EU numbering); also called MICA.36 NF G236A; MICA.36-NF-G236A
As to B1, in [1], the “OT-I CD8+ T cell proliferation (antigen cross-presentation) EC50” value worked out at 1.6 nM and the “antibody dependent cellular phagocytosis (ADCP) EC50” value was determined as 10.7 nM. In addition, in assay [2], the “Fold increase in surface MICA” value worked out at 1.47 fold, the “MICA retention EC50” value worked out at 0.057 nM and the “Reduction in sMICA EC50” value is 0.14 nM. Also, in assay [3], the “Fold increase in surface MICA” value turned out to be 1.43 fold, the “MICA retention EC50” value amounted to 0.032 nM and the “Reduction in sMICA EC50” value turned out to be 0.1 nM. Also, a half-maximal effect in assay [4] (EC50) was put at 3.9 nM. In [5], the response was half-maximal at 1.37 nM (EC50). Moreover, the EC50 in assay [6] stood at 1.76 nM.

B2: MICA.36 hIgG1 (antibody)
heavy: not shown
light: B1 light
notes: Recombinant form of hybridoma 19G6 with wild type human IgG1 (236G), fucosylated; also called MICA.36hIgGl; MICA.36 IgG1
Take B2: the koff in assay [7] was 0.000637 s⁻¹; in assay [8], 0.000606 s⁻¹; in [9], 0.000642 s⁻¹; in assay [10], 0.0161 s⁻¹; in [11] it was 0.000591 s⁻¹; in [12], 0.000565 s⁻¹. Also, in assay [13], the off-rate (koff) was 0.000603 s⁻¹. The kon in [7] stood at 46200 M⁻¹ s⁻¹; in assay [8], 120000 M⁻¹ s⁻¹; in assay [9], 54100 M⁻¹ s⁻¹; in assay [10], 28600 M⁻¹ s⁻¹; in assay [11] it was 95200 M⁻¹ s⁻¹; in [12], 140000 M⁻¹ s⁻¹. Moreover, the kon in [13] is 70100 M⁻¹ s⁻¹. Further, the Kd in assay [10] was > 250 nM; in [14], 6.2 to 13.8 nM; in assay [15], 4 to 5.1 nM; in [16], 8.6 to 11.9 nM.

Values taken from patent US20220281980A1 (Bristol-Myers Squibb, published 2022).
